# Reference: US11491212
# B1: FIXa-D203N/F205T/R338E (mature FIX numbering) (protein)
# chain 1: not shown
# chain 2: not shown
# B2: FIXa-D203N/F205T/R318Y (mature FIX numbering) (protein)
# chain 1: not shown
# chain 2: not shown
# B3: FIXa-D203N/F205T/R338E/R403E (mature FIX numbering) (protein)
# chain 1: not shown
# chain 2: not shown
# B4: FIXa-K228N/R318Y/R338E/R403E/E410N (protein)
# chain 1: not shown
# chain 2: not shown
# B5: FIXa-D85N/K228N/R318Y/R338E/R403E/E410N (protein)
# chain 1: not shown
# chain 2: not shown
# B6: FIXa-D203N/F205T/K228N (mature FIX numbering) (protein)
# chain 1: not shown
# chain 2: not shown
# B7: FIXa-D203N/F205T/E410N (mature FIX numbering) (protein)
# chain 1: not shown
# chain 2: not shown
# B8: FIXa-R318Y/R338E/R403E (mature FIX numbering) (protein)
# chain 1: not shown
# chain 2: not shown
# B9: FIXa-D203N/F205T/R338A (mature FIX numbering) (protein)
# chain 1: not shown
# chain 2: not shown
# B10: FIXa-Y155F/R318Y/R338E/R403E (mature FIX numbering) (protein)
# chain 1: not shown
# chain 2: not shown
# Molecular target: Factor X (FX), P00742
# Sequence (P00742 whole entry, looked up): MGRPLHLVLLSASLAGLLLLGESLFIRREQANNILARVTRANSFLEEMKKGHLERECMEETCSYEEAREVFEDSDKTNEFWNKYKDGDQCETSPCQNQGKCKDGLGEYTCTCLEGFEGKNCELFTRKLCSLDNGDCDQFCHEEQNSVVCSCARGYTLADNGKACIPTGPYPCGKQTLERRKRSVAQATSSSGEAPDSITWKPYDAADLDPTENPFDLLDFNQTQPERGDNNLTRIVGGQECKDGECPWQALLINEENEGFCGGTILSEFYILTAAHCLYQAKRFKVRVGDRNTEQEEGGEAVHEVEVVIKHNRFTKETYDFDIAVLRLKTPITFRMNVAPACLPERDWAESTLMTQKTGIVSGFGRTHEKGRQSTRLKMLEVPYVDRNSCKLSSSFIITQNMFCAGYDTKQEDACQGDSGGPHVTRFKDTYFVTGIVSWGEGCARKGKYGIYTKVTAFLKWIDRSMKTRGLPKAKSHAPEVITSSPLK
Protein,% of WT kcat/KM,% of WT kcat/KM (against Catalyst Biosciences WT FIXa),"kcat/KM for activation of FX by FIXa in the Xase complex (FVIIIa, PC/PS vesicles, Ca2+), fluorogenic Spectrafluor FXa read-out"
B1,228%,–,–
B2,44%,–,–
B3,41%,–,–
B4,–,339%,1.6e+08 M⁻¹ s⁻¹
B5,–,336%,1.6e+08 M⁻¹ s⁻¹
B6,30%,–,–
B7,91%,–,–
B8,134%,–,–
B9,135%,–,–
B10,189%,–,–
